Data from patent US8586548B2, “NAP alpha-aminoisobutyric acid analog with neuroprotective activity” (Ramot at Tel-Aviv University, Ltd., priority 2009, dated 2013).
Entries after “also recorded” stand apart in the source; their conditions may differ. Non-standard residues stand in square brackets, D forms with d. No end group written: not given here. Aib = CC(C)(N)C(=O)O

Legend:
[1] = biological target: VQIVYK (SEQ ID NO:10) peptide derived from tau (Homo sapiens, UniProt P10636); assay: In vitro tau-like VQIVYK aggregation assay (Thioflavin S); type: biochemical
Procedure: In the presence of polyglutamic acid (or heparin), VQIVYK (SEQ ID NO:10) aggregates which can be further detected by Thioflavin S (excitation 485 nm and emission 535) with emission intensity greatly increasing.
First, different concentrations of polyglutamic acid (0, 100 μM, 250 μM, and 400 μM) VQIVYK (SEQ ID NO:10) and either […] (NH4Ac) 50 mM pH 6.5 or MOPS 20 mM pH 6.5 and Thioflavin S 5 μM were mixed together and incubated at room temperature. The extent of aggregation was read at excitation 485 nm and emission 535 nm using the infinite 200 system with the Magellan program.
The peptides were added at a range of concentrations (10^−17-10^−9 M) and the extent of aggregation of 100 μM VQIVYK (SEQ ID NO:10) was tested in the presence of polyglutamate 250 μM in MOPS 20 μM, pH 6.5 for 7 days.
In order to avoid reading self peptide aggregation as VQIVYK aggregation, for each peptide concentration, the fluorescence of the peptide solution without VQIVYK was subtracted from the fluorescence of each peptide concentration containing VQIVYK.

[2] = system: ADNP^+/− male mice; assay: Morris water maze test; type: in vivo, mouse
Procedure: The heterozygous ADNP mice were generated as before (Pinhasov et al., Brain Res. Dev. Brain Res. 2003, 144:83-90; and Vulih-Shultzman et al., J Pharmacol Exp Ther. 2007, 323(2):438-49). To avoid any variability in results associated with the estrous cycle in females, only ADNP^+/− male mice are use for behavioral experiments.
Iso-NAP (NAXaaVSIXaaQ; SEQ ID NO:1) was dissolved in a vehicle solution, in which each milliliter included 7.5 mg of NaCl, 1.7 mg of citric acid monohydrate, 3 mg of disodium phosphate dihydrate, and 0.2 mg of benzalkonium chloride solution (50%). Iso-NAP or vehicle solution (DD) was administered to mice handheld in a semi-supine position with nostrils facing the investigator. A pipette tip was used to administer 2.5 μl/each nostril. The mouse was handheld until the solution is entirely absorbed. Nasal Iso-NAP application was performed daily, once a day, for 2 weeks for the Morris water maze test. In the 2nd week, Iso-NAP was applied 1 h before the daily test (see below), which was conducted for 5 consecutive days. In the passive avoidance test, all mice were treated for a total of 7 days, on the 7th day of treatment the test began. Iso-NAP was applied 1 h before the test.
The mouse is placed in a pool of water that is colored opaque with powdered non-fat milk, where it must swim to a hidden escape platform. The position of the platform is altered between days but remains constant within each day. Because it is in opaque water, the mouse cannot see the platform, and cannot rely on scent to find the escape route. As the mouse becomes more familiar with the task, it is able to find the platform more quickly.
Pool diameter—140 cm, Platform—clear plaxiglass, 12 cm in diameter, 2 cm below the surface of the water, Water temperature—22-23° C., Room temperature—26-28° C.
Mice are treated with Iso-NAP/vehicle and then habituated for 1 hour in the experimental room. […] The time requires to reach the platform in each trial is measured. […]

[3] = 100 μM VQIVYK, polyglutamate 250 μM, MOPS pH 6.5, 7 days, FIG. 4, p<0.0005 vs. control, listed as IsoNAP

NAXaaVSIXaaQ (NA[Aib]VSI[Aib]Q) [Alpha-aminoisobutyric NAP, both prolines of NAP substituted]
inhibition of tau aggregation at 10^−13M [1, 3]: remains effective; also recorded: more effective than NAP
inhibition of tau aggregation at 10^−17M [1, 3]: more potent; also recorded: more effective than NAP
prevention of tau aggregation (overall) ([1]; peptides at 10^−17-10^−9 M): effective for preventing tau aggregation
Morris water maze performance (working memory) vs vehicle controls ([2]; 2 μg/5 μl/mouse/day intranasal, third day of testing, P<0.05): performed better than controls
Morris water maze performance (working memory) vs vehicle controls ([2]; 30 μg/5 μl/mouse/day intranasal, day 2 P<0.05, day 3 P<0.07, listed as Iso-NAP): better than control on testing days 2 and 3
Morris water maze performance (working memory) vs vehicle controls ([2]; 30 μg/5 μl/mouse/day intranasal, day 2 P<0.05, day 3 P<0.07, listed as IsoNAP): seems to affect the spatial memory
